Data taken from patent US20190367619A1 (ARGENX, published 2019).
Residue numbers refer to the chain shown, from its start.

How the values were obtained:
[1] = molecular target: T1, human galectin-10 as coated in ELISA (soluble galectin-10; tag not given) (human, UniProt Q05315 1-142, limits assumed); assay: ELISA, scFv periplasmic extract on coated soluble galectin-10, anti-Myc-HRP
T1 construct: also called coated galectin-10; Gal10
T1 sequence: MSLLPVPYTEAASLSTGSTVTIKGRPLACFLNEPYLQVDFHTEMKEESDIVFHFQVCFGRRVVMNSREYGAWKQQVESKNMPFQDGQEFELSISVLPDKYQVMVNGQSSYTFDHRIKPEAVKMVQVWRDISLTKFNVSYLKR
Procedure: In order to test the binding capacity of the scFvs to galectin-10, an ELISA binding assay was established. Briefly, a Maxisorp plate was coated with soluble galectin-10 (1 μg/mL), then blocked with casein, before being incubated with the periplasmic extract (dilution 1/5 in PBS) containing the scFv-Myc. Detection of the binder was carried out with an anti-Myc-HRP antibody. Absorbance was measured at 450 nm (reference at 620 nm) with Tecan instrument. A significant number of galectin-10 scFv binders were isolated after the second round of selection (45-87% of binders).

[2] = molecular target: T2, human galectin-10-His (recombinant human galectin-10 with TEV-cleavable N-terminal His-tag) (human); assay: BLI Octet RED96, galectin-10-His on anti-Penta-His tips, scFv periplasmic extract 1/10
T2 construct: SEC-MALLS: dimer in solution; also called Gal10-His; humanGal10-His
T2 chain: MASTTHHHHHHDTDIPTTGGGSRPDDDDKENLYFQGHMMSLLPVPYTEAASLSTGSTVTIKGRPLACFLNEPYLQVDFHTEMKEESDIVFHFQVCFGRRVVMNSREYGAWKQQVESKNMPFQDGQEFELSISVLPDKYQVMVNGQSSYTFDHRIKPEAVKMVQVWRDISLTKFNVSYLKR
Procedure: Briefly, galectin-10-His tagged diluted in Kinetic Buffer was captured on Anti-Penta His 1K sensor tips until an immobilization level of 1 nm was reached. Then, diluted periplasmic extracts (1/10) were applied and association/dissociation to immobilized galectin-10-His was measured using the ForteBio Data analysis 9.0 software (subtraction of the reference Tips, 1.1 binding model). During the screening, only the dissociation (off-rate) of the scFv can be determined since the effective concentration of the scFv is unknown and can vary a lot from clone to clone. […] Therefore, taking into consideration the ELISA and BLI data, a new panel of lead scFvs was selected.

[3] = molecular target: T3, recombinant human galectin-10, TEV-cleaved (human, UniProt Q05315 1-142); assay: cell-based or functional assay
T3 sequence: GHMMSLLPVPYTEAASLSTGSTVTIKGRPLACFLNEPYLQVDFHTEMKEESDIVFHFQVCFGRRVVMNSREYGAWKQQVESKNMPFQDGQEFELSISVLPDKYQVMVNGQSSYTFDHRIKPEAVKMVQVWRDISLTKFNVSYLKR

[4] = molecular target: T3, recombinant human galectin-10, …; assay: cell-based or functional assay; remark: listed apart in the source
human galectin-10-His [5] = molecular target: T4, human galectin-10-His (human); assay: ELISA, coated antigen 0.5 ug/mL
T4 construct: The last M of the tag may be Met1 of galectin-10; also called humanGal10-His; hGal10
T4 chain: T2 chain
Procedure: (§1) In a similar setup to that used during the characterization of the scFv-human Fc molecules, the relative binding properties of the 7 mouse IgG1 antibodies were analyzed by ELISA. A Maxisorp plate was coated overnight with 0.5 μg/mL of human or cynomolgus WGS or YRT isoform of galectin-10-His. Then a serial dilution of each clone (from 100 nM, dilution 1/4, 12 points of dilutions) was incubated on coated galectin-10. After several washing steps, detection of the bound mouse IgG1 was carried out with an anti-mouse Fc-HRP antibody (DAMPO, Jackson ImmunoResearch, Catalog 715-035-150). Absorbance was measured at 450 nm (reference at 620 nm) with Tecan instrument. The raw data (OD values) were plotted on GraphPad Prism 7.01. The EC50 values for each antibody, calculated with a non-linear regression (log(agonist) vs. response Variable slope (four parameters)), are shown in the table below. Antibody 1D11 from the previous panel was included for comparison.

[6] = molecular target: T5, cynomolgus galectin-10-His, WGS isoform (cynomolgus); assay: ELISA, coated antigen 0.5 ug/mL
T5 construct: also called cynoGal10-WGS; not shown: His tag
T5 chain: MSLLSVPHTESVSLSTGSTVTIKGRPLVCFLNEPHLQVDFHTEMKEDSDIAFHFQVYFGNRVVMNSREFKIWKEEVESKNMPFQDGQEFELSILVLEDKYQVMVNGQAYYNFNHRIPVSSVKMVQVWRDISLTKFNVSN
Procedure: as §1

[7] = molecular target: T6, cynomolgus galectin-10-His, YRT isoform (cynomolgus); assay: ELISA, coated antigen 0.5 ug/mL
T6 construct: also called cynoGal10-YRT; not shown: His tag
T6 chain: T5 chain with K23E, G24A, L31F, F69Y, K70R, I71T, S92R
Procedure: as §1

human galectin-10-His [8] = molecular target: T4, human galectin-10-His; assay: SPR Biacore T3000, mouse IgG1 captured
Procedure: (§2) The binding capacity of the mouse IgG1 antibody panel to galectin-10 was analysed on Biacore T3000. For this purpose, a capture approach was used, where a fixed concentration (1.5 μg/mL) of the mouse IgG1 clone was captured by polyclonal anti-mouse Fc antibodies immobilized on CM5 Chip to reach a binding signal around 150 RU. Then a serial dilution of human and cynomolgus WGS isoform of galectin-10-His (serial dilution, 1 over 2 from 5 μg/mL) diluted in HBS-EP pH7.4 was injected. Raw data were analysed via BIA evaluation software with a blank subtraction. The kd/KD and Rmax of each mAbs to galectin-10-His was determined using the Fit Kinetics simultaneous ka/kd/Binding with mass transfer/Local Rmax on BIA evaluation software.

[9] = molecular target: T5, cynomolgus galectin-10-His, WGS isoform; assay: SPR Biacore T3000, mouse IgG1 captured
Procedure: as §2

B1: scFv 2F09 (periplasmic extract, Myc-tagged) (scFv, not shown: small tags and cut ends)
scFv: QVQVQESGPGLVKPSQTLSLTCTVSGGSITTNYFYWSWIRQSPGKGLEWIGAIAYSGRTYYSPSLKSRTSISRDTSNNQFTLQLSSVTPEDTAVYYCARGPKGLASYYDYWGQGTQVTVSSGGGGSGGGGSGGGGSSSALTQPSAVSVSLGQTARITCQGGNFGYYYVSWYQQKPGQAPVLVIYRDSGRPSGIPERFSGSSSGDTATLTISGAQAEDEADYYCQSGSSSDNTVFGGGTHLTVL
[1]
  ELISA binding (OD values): 3.6 OD
[2]
  koff: 0.0099 s⁻¹

B2: 10B02 mouse IgG1 (antibody, V domains shown)
VH: QVQLVESGGGLVQPGGSLRVSCAASGFTFSYHYMNWVRQAPGKGLEWVSGISAGGGRTYYADSVKGRFTISRDNAKNTLYLQMNSLNAEDTALYYCARVHGITNDYWGQGTQVTVSS
VL: QSALTQPPSVSGSPGKTVTISCAGTSSDVGYGNYVSWYQQLPGMAPKLLIYEVNKRASGITDRFSGSKSGNTAFLTISGLQSEDEADYYCASYRNSNNWVFGGGTHLTVL
notes: VH and VL cloned in frame with mouse IgG1 constant domains; also called 10B02 mIgG1
[3]
  50% dissolution (min) of CLCs, antibody 50 uM: 25.1 min
  90% dissolution (min) of CLCs, antibody 50 uM: 47.4 min
[4]
  50% crystal dissolution (min), 50 uM: 73.7 min
  90% crystal dissolution (min), 50 uM: > 120 min
Human galectin-10-His [5]
  EC50: 2.28 nM
  OD values: 1.4 OD
[6]
  EC50: 0.04 nM
  OD values: 3.7 OD
[7]
  EC50: 0.14 nM
  OD values: 3.36 OD
Human galectin-10-His [8]
  Kd: 1.5 nM
  koff: 0.00205 s⁻¹
  kon: 1.42e+06 M⁻¹ s⁻¹
[9]
  Kd: 0.9 nM
  koff: 0.00042 s⁻¹
  kon: 494000 M⁻¹ s⁻¹

B3: scFv 1D11 (periplasmic extract, Myc-tagged) (scFv, not shown: small tags and cut ends)
scFv: QVQLVESGGGLVQPGGSLRLSCAASGFTFDDYAMSWVRQAPGKGLEWVSGISWNGGSTYYAESMKGRFTISRDNAKNTLYLQMNSLKSEDTAVYYCAKDRNLGYRLGYPYDYWGQGTQVTVSSGGGGSGGGGSGGGGSQSVLTQPPSVSGSPGETVTISCAGTSSDVGYGNYVSWYQQLPGMAPRLLIYEVNKRASGITDRFSGSKSGNTASLTISGLQSEDEGDYYCASYRSSNNAVFGGGTHLTVL
notes: also called 1D011
[1]
  ELISA binding (OD values): 3.3 OD
[2]
  koff: 0.0052 s⁻¹

B4: scFv 6B06 (periplasmic extract, Myc-tagged) (scFv, not shown: small tags and cut ends)
scFv: QVQRQESGPGLVKPSQTLSLTCTVSGGSITTNYYSWSWIRQPPGKGLEWIGYIAYSGSTSYSPSLKSRTSISRDTSNNQFSLQLSSVTPEDTAVYYCARSRSSPTTFGMDYWGKGTLVTVSSGGGGSGGGGSGGGGSSSALTQPSAVSVSLGQTARITCQGGNFGRYYVSWYTQKPGQAPVLVIYQDSERPTGIPERFSGSSSGDTATLTISGAQAEDEADYYCQSGTSSDNIVFGGGTHLTVL
[1]
  ELISA binding (OD values): 3.7 OD
[2]
  koff: 0.0058 s⁻¹

B5: scFv 6A08 (periplasmic extract, Myc-tagged) (scFv, not shown: small tags and cut ends)
scFv: QVQLVESGGGLVQPGGSLRLSCAASGFTFSSYAMSWVRQAPGKGPEWVSAINRGGGSTYYADSVKGRFTISRDNAKNTLYLQMNSLKPEDAAVYYCATPGDRLWYYRYDYWGQGAQVTVSSGGGGSGGGGSGGGGSQTVVTQEPSLSVSPGGTVTLTCGLSSGSVTSSNYPGWYQQTPGQAPRLLIYNTNSRYSGVPNRFSGSISGNKAALIISGAQPEDEADYHCALNRVRGTYRVFGGGTHLTVL
[1]
  ELISA binding (OD values): 3.5 OD
[2]
  koff: 0.0082 s⁻¹

B6: scFv 2C07 (periplasmic extract, Myc-tagged) (scFv, not shown: small tags and cut ends)
scFv: ELQLVESGGGLVQPGGSLRLSCAASGFTFSSYAMSWVRQAPGKGLEWVSNINSGGGSTGYADSVKGRFTISRDNAKNTLYLQMNSLKPEDMAVYYCAKYLRTYYPNAAFGMDYWGKGTLVTVSSGGGGSGGGGSGGGGSQAVLTQPSAVSVSLGQTARITCQGGNFGRYYASWYQQKPGQAPVLVIYRDSERPSGIPERFSGSSSGDTATLTISGAQAEDEADYYCQSGRSSDNAVFGGGTHLTGL
[1]
  ELISA binding (OD values): 3.6 OD
  PERI-ELISA binding (OD values): 3.63 OD
[2]
  koff: 0.0067 s⁻¹

B7: scFv 1C09 (periplasmic extract, Myc-tagged) (scFv, not shown: small tags and cut ends)
scFv: QVQLVESGPGLVKPSQTLSLTCTVSGGSITTNSYYWSWIRQPPGKGLEWMGAIAYSGSTYYSPSLKSRTSISRDTSKNQFTLHLSSVTPEDTAVYYCARRPNWYRALDAWGQGTLVTVSSGGGGSGGGGSGGGGSNFMLTQPSAVSVSLGQTARITCQGANLGRYYGIWYQQKPGQAPVQVIYGDSNRPSGIPERFSGSSSGGTATLTISGAQAEDEADYYCQSYESSTSPVFGGGTHLTVL
notes: also called 1C9
[1]
  ELISA binding (OD values): 3.5 OD
[2]
  koff: 0.0014 s⁻¹

B8: scFv 4E08 (periplasmic extract, Myc-tagged) (scFv, not shown: small tags and cut ends)
scFv: QVQRQESGPGLVKPSQTLSLTCTVSGGSITTSYYAWSWIRQPPGKGLEWMGVIASDGSTYYSPSLKSRTSISRDTSKNQFSLQLSSVTPEDTAVYYCALYIRGSSWSGWSAYDYWGQGTQVTVSSGGGGSGGGGSGGGGSQPVLNQPSAVSVSLGQTARITCQGGNFGYYYGSWYQQKPGQAPVLVIYKDSERPSGIPERFSGSSSGGTATLTISRAQAEDEADYYCQSADSSDNPVFGGGTHLTVL
notes: also called 4E8
[1]
  ELISA binding (OD values): 3.6 OD
[2]
  koff: 0.0094 s⁻¹

B9: 8H11 mouse IgG1 (antibody, V domains shown)
VH: ELQLVESGGGLVQPGGSLRLSCAASGFTFSTNYMNWVRQAPGKGLEWVSGITSGGGRTYYADSVKGRFTISRDNAKNTLYLQMNSLKPEDTALYYCARTDHAWLDAWGQGTLVTVSS
VL: QAGLTQPPSVSGTLGKTVTISCAGTSSDVGYGNYVSWYQQLPGTAPKLLIYAVSTRASGIPDRFSGSKSGNTASLTISGLLSEDEADYYCASYRSSNNYVFGGGTKLTVL
notes: VH and VL cloned in frame with mouse IgG1 constant domains; also called 8H11 mIgG1
[3]
  50% dissolution (min) of CLCs, antibody 50 uM: 22.4 min
  90% dissolution (min) of CLCs, antibody 50 uM: 43.5 min
[4]
  50% crystal dissolution (min), 50 uM: 68.3 min
  90% crystal dissolution (min), 50 uM: > 120 min
Human galectin-10-His [5]
  EC50: 1.46 nM
  OD values: 1.5 OD
[6]
  EC50: 0.03 nM
  OD values: 3.61 OD
[7]
  EC50: 0.3 nM
  OD values: 2.97 OD
Human galectin-10-His [8]
  Kd: 0.9 nM
  koff: 0.00197 s⁻¹
  kon: 2.31e+06 M⁻¹ s⁻¹
[9]
  Kd: 4.4 nM
  koff: 0.000754 s⁻¹
  kon: 170000 M⁻¹ s⁻¹
